Consider four compounds from PMC10919079, “Biosynthesis of UDP-α-N-Acetyl-D-mannosaminuronic Acid and CMP-β-N-Acetyl-D-neuraminic Acid for the Capsular Polysaccharides of Campylobacter jejuni” (Biochemistry, 2024).

The test system of data set [1] is CC(=O)N[C@@H]1[C@@H](OP(=O)(O)OP(=O)(O)OC[C@H]2O[C@@H](n3ccc(=O)[nH]c3=O)[C@H](O)[C@@H]2O)O[C@H](CO)[C@@H](O)[C@@H]1O. Nature of the data set: purified protein. The conditions noted are these: pH 7.5, 25 °C, same buffer, 2.0 mM NAD+, 2.0 mM DTT, UDP-ManNAc generated in situ from UDP-GlcNAc with excess C2-epimerase (10 μM).
For data set [2], the target named is T1, CMP-Neu5Ac synthase (HS6.5) (Campylobacter jejuni, UniProt P0DY07).
T1 construct: full-length synthetic codon-optimised gene, N-terminal His6 tag kept, pET-28a(+), E. coli BL21(DE3)
T1 sequence (P0DY07 whole entry): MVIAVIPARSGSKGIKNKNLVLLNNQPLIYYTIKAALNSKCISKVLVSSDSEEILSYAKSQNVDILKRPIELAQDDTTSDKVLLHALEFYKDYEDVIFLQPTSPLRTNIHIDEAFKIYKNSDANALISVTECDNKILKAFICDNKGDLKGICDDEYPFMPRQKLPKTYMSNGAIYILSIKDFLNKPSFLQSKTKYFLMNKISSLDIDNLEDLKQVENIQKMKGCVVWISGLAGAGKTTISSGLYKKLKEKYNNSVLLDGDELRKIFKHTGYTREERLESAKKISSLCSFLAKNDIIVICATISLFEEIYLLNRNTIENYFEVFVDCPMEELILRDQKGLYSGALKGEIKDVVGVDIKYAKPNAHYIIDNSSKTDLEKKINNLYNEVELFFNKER
Briefly: anion exchange chromatography, NMR and MS of CMP-Neu5Ac product. It is filed as biochemical. The conditions noted are these: pH 7.5; Neu5Ac co-substrate, MgCl2, pyrophosphatase.

Data set [3] deals with CC(=O)N[C@H]1[C@@H](OP(=O)(O)OP(=O)(O)OC[C@H]2O[C@@H](n3ccc(=O)[nH]c3=O)[C@H](O)[C@@H]2O)O[C@H](CO)[C@@H](O)[C@@H]1O. Briefly: purified protein. Conditions: pH 7.5, 25 °C.
Where [4] appears, read: same buffer, 10 mM MgCl2, 2.0 mM PEP, 300 μM NADH.
Setting [5] is: 50 mM HEPES, 250 mM KCl, 5% glycerol, excess C6-dehydrogenase (10 μM), 2.0 mM NAD+, 2.0 mM DTT.

The term Km denotes the concentration of substrate that gives half-maximal velocity. One may read the kcat as the maximal rate divided by the concentration of active sites. By kcat/Km is commonly meant the turnover number divided by the Michaelis constant.

For the compound “UDP-ManNAc C6-dehydrogenase (HS11.16) (Campylobacter jejuni)”, in data set [1], the Michaelis constant (Km) was found to be 22 ± 1 µM, the turnover number (kcat) is 0.2 ± 0.01 s⁻¹ and the specificity constant (kcat/Km) came out at 8700 ± 400 M⁻¹ s⁻¹.

As to `Nc1ccn([C@@H]2O[C@H](COP(=O)(O)OP(=O)(O)OP(=O)(O)O)[C@@H](O)[C@H]2O)c(=O)n1` [CTP], the “anion exchange chromatography, NMR and MS of CMP-Neu5Ac product” value in data set [2] was “CMP-Neu5Ac synthase using CTP as the nucleotide donor”.

As for “hydrolyzing UDP-GlcNAc C2-epimerase (HS6.10) (Campylobacter jejuni subsp. jejuni 81116)”, in data set [3] (setting [4]), the Michaelis constant (Km) came out at 160 ± 10 µM, the catalytic constant (kcat) turned out to be 3.1 ± 0.1 s⁻¹ and the kcat/Km is 19900 ± 1000 M⁻¹ s⁻¹.

On to “nonhydrolyzing UDP-GlcNAc C2-epimerase (HS11.17) (Campylobacter jejuni)”, for which, in data set [3] (setting [5]), the Michaelis-Menten constant (Km) was found to be 1370 ± 50 µM, the kcat is 5.7 ± 0.2 s⁻¹ and the specificity constant (kcat/Km) amounted to 4200 ± 200 M⁻¹ s⁻¹.
